What is called Kd is a measure of binding affinity in units of concentration. Read a low Kd as tighter binding.

From article PMC2910040 come the findings set out here.

Data set [1] has as its target T1, BLMHM (BLM helicase module) (Homo sapiens, UniProt P54132 642-1290). The data set can be described thus: stopped-flow mdADP fluorescence amplitude titration.
Data set [2] concerns the target T1, BLMHM (BLM helicase module). Described as above. The source holds these as a separate data set.
Data set [3] shares this target. The data set is described as above. The source holds these as a separate data set.
The target is the same in data set [4]. Briefly: fluorescence titration.
Data set [5] has the same target. Briefly: HEX fluorescence change.

T1 sequence (P54132 642-1290): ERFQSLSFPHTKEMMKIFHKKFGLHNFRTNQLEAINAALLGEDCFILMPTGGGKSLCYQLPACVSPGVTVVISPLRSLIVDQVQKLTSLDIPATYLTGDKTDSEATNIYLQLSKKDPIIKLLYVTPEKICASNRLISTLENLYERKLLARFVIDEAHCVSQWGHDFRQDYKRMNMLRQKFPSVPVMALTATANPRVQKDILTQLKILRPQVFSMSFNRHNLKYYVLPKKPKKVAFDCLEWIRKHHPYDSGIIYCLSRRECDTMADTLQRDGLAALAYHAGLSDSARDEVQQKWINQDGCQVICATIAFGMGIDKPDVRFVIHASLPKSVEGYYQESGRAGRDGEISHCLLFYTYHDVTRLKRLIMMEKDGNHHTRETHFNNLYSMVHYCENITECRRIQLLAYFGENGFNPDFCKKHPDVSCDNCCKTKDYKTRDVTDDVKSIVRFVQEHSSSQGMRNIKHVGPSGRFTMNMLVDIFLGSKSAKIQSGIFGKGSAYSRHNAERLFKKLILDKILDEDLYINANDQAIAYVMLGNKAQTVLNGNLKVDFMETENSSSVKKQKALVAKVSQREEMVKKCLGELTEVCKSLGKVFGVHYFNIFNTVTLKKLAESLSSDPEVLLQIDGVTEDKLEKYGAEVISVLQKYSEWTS

As for TTTTTTTTTTTTTTTTTT (ssDNA) [dT18], the Kd in data set [1] was < 100 nM.

As to TTTTTTTTTTTTTTTTTTTTTTTTTTTTTTTTTTTT (ssDNA) [dT36], the Kd in data set [2] is < 100 nM.

B1: dT54 (ssDNA)
DNA: TTTTTTTTTTTTTTTTTTTTTTTTTTTTTTTTTTTTTTTTTTTTTTTTTTTTTT
B1: in data set [3], the Kd was < 100 nM.

B2: DNA_2 (5'-HEX-DNA_54mer) (ssDNA)
DNA: CGTTGCGCAATTAAGCTCTAAGCCATCCGCAAAAATGACCTCTTATCAAAAGGA
Consider B2, for which the Kd in data set [4] is 100 ± 20 nM.

Turning to TTTTTTTTTTTTTTTTTTTT (ssDNA) [5'-HEX-dT20], in data set [5], the binding result is “binds”.
